Nine molecules from US20250263490A1 (VIB VZW, published 2025) can be followed below.

Broadly, the EC50 (read off the curve) is the concentration that produces a half-maximal response. One may read the Kd as the constant that tells how readily two partners part at equilibrium. In general, koff refers to the rate constant with which the complex falls apart. For orientation: kon means the rate constant with which the complex forms. As a reminder, the EC50 is the midpoint of the concentration-response curve.

In test [1] the target is T1, recombinant human domain 1-3His6 of the cation-independent mannose-6-phosphate receptor (human, UniProt P11717 41-467).
T1 construct: Biotinylated (NHS-PEG4-biotin) for BLI; Glycosylated; also called hDom1-3His6; hCI-M6PRD1-D3
Description: in-tandem competitive BLI, biotinylated hDom1-3His6 on SA sensors, purified VHH at 400 nM.

For test [2], the target named is T1, recombinant human domain 1-3His6 of the …. Description: ELISA on coated antigen (100 ng), anti-VHH-HRP, A450. The method, then: (§1) To determine the effect of site-directed mutations, an ELISA was performed. To this end, 100 ng of each successfully purified mutant was coated per well on Nunc Maxisorp plates in 50 mM MES, 150 mM NaCl, pH 6.5 buffer overnight at 4° C. […] Coating-only controls were included for background correction. […] Reactions were stopped after five minutes using a 2N H₂SO₄ solution and plates were read at 450 nm, with a 655 nm background correction. Data were analyzed using the GraphPad Prism 9 software.
In general terms: ELISA stands for enzyme-linked immunosorbent assay.

Test [3] has the same target. The description is as above. The method, then: as §1
This is another data set of the same source.

Test [4] has the same target. Description: BLI exp 1, dissoc pH 7. How it is done:
(§2) For each of the 11 anti-CI-M6PR VHHs, a biolayer interferometry (BLI) experiment was performed in which the hDom₁₋₃His₆ was biotinylated and coupled to streptavidin biosensor tips. Afterwards, the tips were incubated with serially diluted VHHs during the association phase and dissociation was performed at pH 7.4. Similarly, dissociation was performed at pH 7.0, pH 6.0 and pH 5.0 as well after regeneration of the biosensor tips. […] The anti-CI-M6PR antibody (clone 2G11) and GBP were used as positive and negative controls, respectively.
(§3) Analysis of the binding kinetics was performed using an Octet Red96 (FortéBio) device with Streptavidin SA Biosensor tips (VWR 733-2145). Therefore, 1 mL of human domain₁₋₃His₆ (0.5 mg/mL in 50 mM MES, 150 mM NaCl, pH 6.5) was incubated at room temperature for 30 minutes with EZ-Link™ NHS-PEG4-Biotin (1 mg) (Thermo Fischer A39259) and NaHCO₃ (100 mM). Biotinylated human domain₁₋₃His₆ was purified using a Zeba spin desalting Column™ (7K MWCO, 2 mL, Thermo Fischer 89890) and 1 μg/mL was used for immobilization on the Streptavidin SA Biosensor tips. The loaded tips were dipped into a particular anti-CI-M6PR VHH solution, serially diluted in kinetics buffer (0.2M NaH₂PO₄, 0.1M Na⁺ citrate, 0.01% BSA, 0.002% Tween20, pH 7.4). This was followed by dissociation of the particular anti-CI-M6PR VHH in kinetics buffer of pH 7.4, followed by regeneration in Glycine (10 mM, pH 3) and neutralisation. Same cycle was repeated but the dissociation was performed at pH 7.0, 6.0, 5.0, 4.5 and 4.0. A reference well and reference sensors were subtracted from ligand sensors afterwards and Savitsky-Golay filtering was applied on the data. Fitting of the data was performed using a 1:1 model, grouped per pH of dissociation.

For test [5] the target is unchanged. Description: ELISA on coated antigen, 1st of 2 repeats. The method, then:
(§4) FIGS. 4A-4B. Affinity of anti-CI-M6PR VHHs for recombinant human CI-M6PR Domain 1-3His₆ determined by ELISA. A & B. Measurements for each of the 11 anti-CI-M6PR VHHs in serial dilution binding to the coated human CI-M6PR Domain 1-3His₆ antigen. Detection was performed using an anti-VHH antibody coupled to HRP, and measured as the absorbance of the TMB substrate at 450 nm, correlating to the amount of bound VHH as plotted at the Y-axis. The Log₁₀ concentrations of the serially diluted VHHs were plotted at the X-axis. […] A & B represent replicates but using a different concentration of human CI-M6PR Domain 1-3His₆ (in (FIG. 4A): 0-0.75 μM and in (FIG. 4B): 0-1 μM).
(§5) We evaluated the affinity of the VHHs against the hDom₁₋₃His₆ using ELISA. Coated hDom₁₋₃His₆ was incubated with serially diluted VHH that was afterwards detected using an anti-VHH antibody, coupled to HRP.

Test [6] shares this target. Description: BLI exp 2, dissoc pH 5. The method, then:
as §2
(§6) Analysis of the binding kinetics was performed using an Octet Red96 (FortéBio) device with Streptavidin SA Biosensor tips (VWR, 733-2145). To this end, 1 mL of hCI-M6PR_D1-D3 (0.5 mg/mL in 50 mM MES, 150 mM NaCl, pH 6.5) was incubated at room temperature for 30 minutes with a two-fold molar excesses of EZ-Link™ NHS-PEG₄-Biotin (Thermo Fischer, A39259) and NaHCO₃ (100 mM, pH 8.3). Biotinylated hCIMPR_D1-D3 was purified using a Zeba spin desalting column (Thermo Fischer, 89890) and protein concentration was calculated by measuring the absorbance at 280 nm (extinction coefficient 50320 M¹ cm⁻¹). Two-fold biotin-labelled antigen was loaded on the tips (2.5 μg/mL) and subsequently dipped into a particular anti-CI-M6PR VHH-containing solution (ranging from 0-100 nM). Serial VHH dilutions were made in kinetics buffer (0.2 M Na₂HPO₄, 0.1 M Na⁺ citrate, 0.01% BSA, 0.002% Tween20, pH 7.4). After association (100 sec), dissociation was conducted (500 sec) for each anti-CI-M6PR VHH in the kinetics buffer, followed by biosensor regeneration in glycine (10 mM, pH 3) and neutralisation. The same cycle was repeated with dissociation performed in kinetics buffer of pH 7.0, 6.5, 6.0, 5.5, and 5.0.
(§7) A reference well and reference sensors were subtracted from ligand sensors afterwards and Savitsky-Golay filtering was applied on the data. Fitting of the data was performed using a 1:1 model, grouped per dissociation pH.

For test [7] the target is unchanged. Description: BLI exp 1, dissoc pH 5. The method, then: as §2, §3
The target is the same in test [8]. Description: BLI exp 1, dissoc pH 6. How it is done: as §2, §3
Test [9] concerns the target T2, recombinant mouse domain 1-3His6 of CI-M6PR (mouse, UniProt Q07113 36-418).
T2 construct: Genbank NM_010515.2); Range includes the signal peptide; also called mDom1-3His6; mCI-M6PRD1-D3
Description: ELISA: coated mouse CI-M6PR Domain 1-3His6, serially diluted VHH, anti-VHH-HRP, TMB, Abs 450 nm; sigmoidal regression [table at the right]. How it is done: FIGS. 5A-5B. Affinity of anti-CI-M6PR VHHs for recombinant mouse CI-M6PR Domain 1-3His₆ determined by ELISA. (FIG. 5A) Measurement for each of the 11 anti-CI-M6PR VHHs in serial dilution binding to the coated mouse antigen. Detection was performed using an anti-VHH antibody coupled to HRP, and measured as the absorbance of the TMB substrate at 450 nm, correlating to the amount of bound VHH as plotted at the Y-axis. The Log₁₀ concentrations of the serially diluted VHHs were plotted at the X-axis.
To evaluate the cross-reactivity of the anti-CI-M6PR nanobodies between the human and mouse CI-M6PR domain 1-3His₆ antigen, ELISA was performed with the eleven serially diluted anti-CI-M6PR nanobodies. […] By performing sigmoidal regression on the derived absorbance curves, half-maximal effective concentration (EC₅₀) values of each VHH were acquired, representing the required concentration to occupy 50% of the coated antigen. As a negative control, GBP was included in the assay.

For test [10], the target named is T1, recombinant human domain 1-3His6 of the …. Put plainly: BLI exp 2, dissoc pH 6. The method, then: as §2, §6, §7
Test [11] shares this target. Description: BLI exp 2, dissoc pH 7.
For test [12] the target is unchanged. Put plainly: ELISA on coated antigen, 2nd of 2 repeats. How it is done:
as §4, §5

Test [13] has the same target. Put plainly: BLI exp 1, dissoc pH 7.4. The method, then:
as §2, §3

Test [14] has the same target. Put plainly: BLI at pH 7.4, 1st of 2 repeats. How it is done:
as §2, §3

Positions count from the first letter of the chain named. Like-named read-outs stand apart in the source and are kept apart here.

T2 sequence (Q07113 other isoform, or with tags, fused parts or gaps): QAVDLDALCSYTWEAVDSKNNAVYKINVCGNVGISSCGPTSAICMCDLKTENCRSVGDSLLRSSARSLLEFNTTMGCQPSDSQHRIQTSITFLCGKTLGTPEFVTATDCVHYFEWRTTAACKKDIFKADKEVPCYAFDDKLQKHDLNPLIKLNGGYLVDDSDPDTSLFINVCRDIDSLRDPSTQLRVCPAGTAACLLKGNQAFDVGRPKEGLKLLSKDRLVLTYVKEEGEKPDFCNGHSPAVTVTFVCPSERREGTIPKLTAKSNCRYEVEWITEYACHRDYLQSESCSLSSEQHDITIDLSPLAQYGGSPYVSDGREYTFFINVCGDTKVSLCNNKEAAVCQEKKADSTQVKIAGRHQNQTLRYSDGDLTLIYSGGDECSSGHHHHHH

B1: humanized VHH8 variant VHH8 h2 (VHH)
VHH: DVQLVESGGGLVQPGGSLRLSCAASGRTFNTYNWGWFRQAPGKEREFVAAIRWSSSKTSYADSVKGRFTISRDNSKNTVYLQMNSLRPEDTAVYYCAASIVDFTTNPSHFGSWGQGTLVTVSS
notes: made in E. coli
B1: in [1], the binding result was “binds”.

B2: humanized VHH8 variant VHH8hWN (VHH)
VHH: B1 VHH with S75A, V79I
notes: His6-tagged, made in HEK293S
Take B2: the “EC50 (read off the curve)” value in [2] and in [3] was roughly 3 nM throughout.

B3: humanized VHH8 variant VHH8 h1 (VHH)
VHH: B1 VHH with D1E
notes: made in E. coli
For the molecule B3, the binding result in test [1] is “binds”.

B4: humanized VHH8 variant VHH8 h3 (VHH)
VHH: B1 VHH with P14A
notes: made in E. coli
With B4, the binding result in [1] was “binds”.

B5: anti-CI-M6PR VHH2 (VHH)
VHH: QVQLQESGGGLVQPGGSLRLSCVFSGRTFMSYDVGWFRQAPGKERELLSSITSSSSSPYYAESVKGRFAVSRDGAKKTVYLRMNSLEPEDTAVYYCAARENWRNDWQYWGQTQVTVSS
notes: His6-tagged; made in Pichia pastoris
In the case of B5, the Kd in test [4] came to 24.2 nM; in [7], 10 nM; in test [8] it was 5.96 nM; in test [13] it was 5.3 nM; in test [14], 5.3 nM. The koff in test [4] was found to be 0.0161 s⁻¹; in [6], 0.074 s⁻¹; in [7], 0.00746 s⁻¹; in test [8], 0.00513 s⁻¹; in [10], 0.0748 s⁻¹; in test [11], 0.0136 s⁻¹. Moreover, the koff in test [13] and in [14] was 0.0036 s⁻¹ in each case. In addition, the kon was found to be 665000 M⁻¹ s⁻¹ in test [4]; 745000 M⁻¹ s⁻¹ in test [6]; 745000 M⁻¹ s⁻¹ in test [7]; 862000 M⁻¹ s⁻¹ in test [8]; 3.76e+06 M⁻¹ s⁻¹ in [10]; 1.56e+06 M⁻¹ s⁻¹ in [11]. The kon in [13] and in test [14] was 679000 M⁻¹ s⁻¹ throughout. For the same molecule, the figures for the EC50 in [5], in test [9] and in test [12] were 0.0608 nM, 104 nM and 0.177 nM, respectively.

B6: humanized VHH7 variant VHH7 h3 (VHH)
VHH: DVQLVESGGGLVQPGGSLRLSCAASGIIFSDNRMDWYRQAPGKQREWVATLASYGWKTYADSVKGRFTISRDNTKNTVYLQMNSLRPEDTAVYYCKASSPVLNDIWGQGTLVTVSS
notes: made in E. coli
In the case of B6, the binding result in [1] is on record as “binds”.

B7: humanized VHH7 variant VHH7 h1 (VHH)
VHH: B6 VHH with D1E, T74S
notes: made in E. coli
On to B7, for which, in test [1], the binding result is “binds”.

B8: humanized VHH7 variant VHH7 h2 (VHH)
VHH: B6 VHH with T74S
notes: made in E. coli
As for B8, the binding result in [1] was “binds”.

B9: humanized VHH7 variant VHH7hWN (VHH)
VHH: B6 VHH with T74A
notes: His6-tagged, made in HEK293S
In the case of B9, the 50% effective concentration (EC50 (read off the curve)) in [2] and in [3] was roughly 0.5 nM each time.
